Measured values as given in patent US20260265358A1 (BYOMASS, published 2026).
Several values for one entry are separate records, joined by “and”; a condition that tells them apart may be missing. Equal values may be shown once.

T1: Human Activin A Fc (human, UniProt P03970 309-424 (pig entry))
T1 construct: also called human Activin A-Fc fusion; human Activin A-Fc antigen; not shown: Fc part
T1 sequence: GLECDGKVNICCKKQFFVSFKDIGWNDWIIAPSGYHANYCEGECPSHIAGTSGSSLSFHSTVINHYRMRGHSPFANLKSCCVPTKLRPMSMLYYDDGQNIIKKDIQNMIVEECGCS

T2: biotinylated Human Activin A (human, UniProt P03970 309-424 (pig entry), biotinylated (EZ-Link Sulfo-NHS-Biotinylation Kit))
T2 sequence: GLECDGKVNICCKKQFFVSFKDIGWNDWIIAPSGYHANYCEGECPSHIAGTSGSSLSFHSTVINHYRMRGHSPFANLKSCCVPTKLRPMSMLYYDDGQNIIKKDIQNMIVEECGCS


What was measured:
Human Activin A Fc = molecular target: T1, Human Activin A Fc; experiment: Octet BLI, Fab, monovalent
[1] = molecular target: T2, biotinylated Human Activin A; experiment: SPR (Biacore 8K), antigen captured, Fab analyte
Procedure: Kinetic analysis was conducted at 25° C. in HBS-EP+ running buffer (10 mM HEPES pH 7.4, 150 mM NaCl, 3 mM EDTA, 0.05% Surfactant P20) using a Biacore 8K optical biosensor (Cytiva, Marlborough, MA). The sample compartment was maintained at 10° C. for the duration of the experiment. The Biacore 8K can analyze up to 8 separate interactions in a single cycle.
Each experiment cycle began with an injection (300 s at 2 μL/min) overflow cells 1 and 2 of a 1:100 solution of biotin CAPture reagent (Cytiva) in running buffer. This was followed by an injection (45 s at 10.0 μL/min) of biotinylated human ACTIVIN A (5 nM) overflow cell 2. Upon capture of ACTIVIN A to the sensor surface, a single concentration of Fab ranging from 0.111-81.0 nM was injected (300 s at 30 μL/min) overflow cells 1 and 2. The dissociation of the antibodies were monitored for 3420 s. Finally, an injection (120 s at 10 μL/min) of regeneration solution (6 M Guanidine-HCl in 0.25 M NaOH) overflow cells 1 and 2 prepared the sensor surface for another cycle. Several blank buffer samples were injected (300 s at 30 μL/min) overflow cells 1 and 2 throughout the duration of the experiment and used for reference surface subtraction—each were monitored for the same amount of dissociation time (3420 s) and regenerated under the same conditions as those for the Fab sample injections.
The anti-Activin antibodies identified in Example 1 were characterized. First, binding kinetics of the anti-Activin antibodies was assessed with a Surface Plasmon Resonance assay (Biacore).

Row | Binder | Kd (Human Activin A Fc) | Kd [1] | koff [1] | kon [1]
1 | Fab of anti-Activin A antibody Clone K (Fab, V domains shown, Fab format; only VH and VL are tied to the clone; also called Clone K Fab) VH: QVQLVQSGAEVKKPGSSVKVSCKASGGTSSSYAISWVRQAPGQGLEWMGYIIPAFGTANYAQKFQGRVTITADESTSTAYMELSSLRSEDTAVYYCARPVRTYPLGKYFYHWGQGTLVTVSS VL: EIVLTQSPATLSLSPGERATLSCRASQSVSSYLAWYQQKPGQAPRLLIYDASNRATGIPARFSGSGSGTDFTLTISSLEPEDFAVYYCQQDSIFPPYTFGGGTKVEIK | 0.925 nM | 0.0367 nM | 0.000119 s⁻¹ | 3.25e+06 M⁻¹ s⁻¹
2 | Fab of anti-Activin A antibody Clone F (Fab, V domains shown, Fab format; only VH and VL are tied to the clone; also called Clone F Fab) VH: QVQLVQSGAEVKKPGASVKVSCKASGYTFTGYHIHWVRQVPGQGLEWMGVISAYSGDTNYAQKLQGRVTMTTDTSTSTAYMELRSLRSDDTAVYYCARARDIAALGLGAFDYWGQGTLVTVSS VL: EIVLTQSPATLSVSPGERATLSCRASQSVSSNLAWYQQKPGQAPRLLIYGASDRATGIPARFSGSGSGTEFTLTISSLQSEDFAVYYCIQYSNYPRTFGGGTKVEIK | 0.419 nM | 0.0431 nM | 7.26e-05 s⁻¹ | 1.68e+06 M⁻¹ s⁻¹
3 | Fab of anti-Activin A antibody Clone O (Fab, V domains shown, Fab format; only VH and VL are tied to the clone; also called Clone O Fab) VH: QVQLVQSGAEVKKPGSSVKVSCKASGGTFSNYDINWVRQAPGQGLEWMGGIIPVFGTAAYAQKFQGRVTITADESTSTAYMELSSLRSEDTAVYYCAREARDGYRYAFQHWGQGTLVTVSS VL: EIVMTQSPATLSVSPGERATLSCRASQSVSSNLAWYQQKPGQAPRLLIYGASTRATGIPARFSGSGSGTEFTLTISSLQSEDFAVYYCQQYNNWPITFGGGTKVEIK | 1.92 nM |  |  | 
4 | Fab of anti-Activin A antibody Clone L (Fab, V domains shown, Fab format; only VH and VL are tied to the clone; also called Clone L Fab) VH: QVQLQESGPGLVKPSETLSLTCAVSGYSISSGYYWGWIRQPPGKGLEWIGSIYHSGSTYYNPSLKSRVTISVDTSKNQFSLKLSSVTAADTAVYYCAREAGSGYWYLSVYGMDVWGQGTTVTVSS VL: EIVLTQSPATLSVSPGERATLSCRASQSVSSNLAWYQQKPGQAPRLLIYGASTRATGIPARFSGSGSGTEFTLTISSLQSEDFAVYYCQQSDDWPWTFGGGTKVEIK | 4.14 nM |  |  | 
5 | Fab of anti-Activin A antibody Clone M (Fab, V domains shown, Fab format; only VH and VL are tied to the clone; also called Clone M Fab) VH: QLQLQESGPGLVKPSETLSLTCTVSGGSISSSDYYWGWIRQPPGKGLEWIGSIYYPANTYYNPSLKSRVTISVDTSKNQFSLKLSSVTAADTAVYYCARGYWNYGMDVWGQGTTVTVSS VL: not shown | 4.53 nM |  |  | 
6 | Fab of anti-Activin A antibody Clone N (Fab, V domains shown, Fab format; only VH and VL are tied to the clone; also called Clone N Fab) VH: QLQLQESGPGLVKPSETLSLTCTVSGGSISSSDYYWGWIRQPPGKGLEWIGSIYYPASTYYNPSLKSRVTISVDTSKNQFSLKLSSVTAADTAVYYCARGYWNYGMDVWGQGTTVTVSS VL: not shown | 4.85 nM |  |  | 
7 | Fab of anti-Activin A antibody Clone Q (Fab, V domains shown, Fab format; only VH and VL are tied to the clone; also called Clone Q Fab) VH: QVQLVQSGAEVKKPGSSVKVSCKASGGSFSPYTWSWVRQAPGQGLEWMGGIIPISGTANTAQKFQGRVTITADESTSTAYMELSSLRSEDTAVYYCARGGPLSGWRASYYYWGQGTLVTVSS VL: not shown | 1.75 nM | 0.24 nM | 0.000175 s⁻¹ | 728000 M⁻¹ s⁻¹
8 | Fab of anti-Activin A antibody Clone R (Fab, V domains shown, Fab format; only VH and VL are tied to the clone; also called Clone R Fab) VH: QVQLVQSGAEVKKPGSSVKVSCKASGGSFSPYTISWVRQAPGQGLEWMGGIILTSGTANYAQKFQGRVTITADESTSTAYMELSSLRSEDTAVYYCARGGPLSGWRASYYYWGQGTLVTVSS VL: not shown | 2.9 nM |  |  | 
9 | Fab of anti-Activin A antibody Clone C (Fab, V domains shown, Fab format; only VH and VL are tied to the clone; also called Fab of Clone C) VH: QVQLVQSGAEVKKPGASVKVSCKASGYTFPGYHMHWVRQAPGQGLEWMGVINPSSGDTNYAQKFQGRVTMTRDTSISTAYMELSRLRSDDTAVYYCARARDIAALGLGAFDYWGQGTLVTVSS VL: EIVLTQSPGTLSLSPGERATLSCRASQSVSSSYLAWYQQKPGQAPRLLIYGASSRAGGIPDRFSGSGSGTDFTLTISRLEPEDFAVYYCQQYVAYPRTFGGGTKVEIK | 0.229 nM | 0.0334 nM and 0.0179 nM | 4.52e-05 s⁻¹ and 2.74e-05 s⁻¹ | 
10 | Fab of anti-Activin A antibody Clone A (Fab, V domains shown, Fab format; only VH and VL are tied to the clone; also called Clone A Fab) VH: QVQLVQSGAEVKKPGASVKVSCKASGYTFTGYYMHWVRQAPGQGLEWMGSINPSSGGTNYAQKFQGRVTMTTDTSTSTAYMELRSLRSDDTAVYYCARARDIAAAGLGAFDYWGQGTLVTVSS VL: EIVLTQSPGTLSLSPGERATLSCRASQSVRSSYLAWYQQKPGQAPRLLIYGASSRATGIPDRFSGSGSGTDFTLTISRLEPEDFAVYYCQQYVSYPRTFGGGTKVEIK | 2.02 nM |  |  | 
11 | Fab of anti-Activin A antibody Clone G (Fab, V domains shown, Fab format; only VH and VL are tied to the clone; also called Clone G Fab) VH: QVQLVQSGAEVKKPGASVKVSCKASGYTFTSYYIHWVRQAPGQGLEWMGAIYAYSGDTNYAQKLQGRVTMTTDTSTSTAYMELRSLRSDDTAVYYCARARDIAAAGLGAFDYWGQGTLVTVSS VL: EIVLTQSPGTLSLSPGERATLSCRASQSVRSSYLAWYQQKPGQAPRLLIYGASSRATGIPDRFSGSGSGTDFTLTISRLEPEDFAVYYCQQYSNYPRTFGGGTKVEIK | 1.09 nM | 0.0849 nM | 0.000124 s⁻¹ | 1.46e+06 M⁻¹ s⁻¹
12 | Fab of anti-Activin A antibody Clone I (Fab, V domains shown, Fab format; only VH and VL are tied to the clone; also called Clone I Fab) VH: QVQLVQSGAEVKKPGSSVKVSCKASGGTFSNYAISWVRQAPGQGLEWMGYIIPFFGTANYAQKFQGRVTITADESTSTAYMELSSLRSEDTAVYYCARGGSGYSTSWGSSLYWGQGTLVTVSS VL: EIVLTQSPGTLSLSPGERATLSCRASQSVSSSYLAWYQQKPGQAPRLLIYGASYRATGIPDRFSGSGSGTDFTLTISRLEPEDFAVYYCLQSGVFPYTFGGGTKVEIK | 0.857 nM | 0.0616 nM | 7.38e-05 s⁻¹ | 1.2e+06 M⁻¹ s⁻¹
13 | Fab of anti-Activin A antibody Clone H (Fab, V domains shown, Fab format; only VH and VL are tied to the clone; also called Clone H Fab) VH: QVQLVQSGAEVKKPGASVKVSCKASGYTFTGYHIHWVRQAPGQGLEWMGHISAYSGTTNYAQKLQGRVTMTTDTSTSTAYMELRSLRSDDTAVYYCARARDIAAAGLGAFDYWGQGTLVTVSS VL: EIVLTQSPGTLSLSPGERATLSCRASQSVRSSYLAWYQQKPGQAPRLLIYGASSRATGIPDRFSGSGSGTDFTLTISRLEPEDFAVYYCQQYSNYPRTFGGGTKVEIK | 1.86 nM | 0.96 nM | 0.000371 s⁻¹ | 386000 M⁻¹ s⁻¹
14 | Fab of anti-Activin A antibody Clone D (Fab, V domains shown, Fab format; only VH and VL are tied to the clone; also called Fab of Clone D) VH: QVQLVQSGAEVKKPGASVKVSCKASGYTFFGYSMHWVRQAPGQGLEWMGVINPSSGDTNYAQKFQGRVTMTRDTSISTAYMELSRLRSDDTAVYYCARARDIAALGLGAFDYWGQGTLVTVSS VL: not shown | 0.538 nM | 0.00986 nM and 0.00813 nM | 3.02e-05 s⁻¹ and 2.16e-05 s⁻¹ | 3.06e+06 M⁻¹ s⁻¹ and 2.66e+06 M⁻¹ s⁻¹
15 | Fab of anti-Activin A antibody Clone J (Fab, V domains shown, Fab format; only VH and VL are tied to the clone; also called Clone J Fab) VH: EVQLVQSGAEVKKPGSSVKVSCKASGGTFSLYAISWVRQAPGQGLEWMGGIIPYFGTANYAQKFQGRVTITADESTSTAYMELSSLRSEDTAVYYCARGGSGYSTSWGSSLYWGQGTLVTVSS VL: EIVLTQSPGTLSLSPGERATLSCRASQSVSSSYLAWYQQKPGQAPRLLIYGAFSRATGIPDRFSGSGSGTDFTLTISRLEPEDFAVYYCQQSGVFPYTFGGGTKVEIK |  | 0.118 nM |  | 
16 | Fab of anti-Activin A antibody Clone E (Fab, V domains shown, Fab format; only VH and VL are tied to the clone; also called Clone E Fab) VH: QVQLVQSGAEVKKPGASVKVSCKASGYTFHGYNMHWVRQAPGQGLEWMGSINPYSGYTIYAQKFQGRVTMTRDTSISTAYMELSRLRSDDTAVYYCARARDIAAAGLGAFDYWGQGTLVTVSS VL: EIVLTQSPGTLSLSPGERATLSCRASQSVRSSYLAWYQQKPGQAPRLLIYGASSRATGIPDRFSGSGSGTDFTLTISRLEPEDFAVYYCQQYVSYPRTFGGGTKVEIK | 0.79 nM | 0.0779 nM | 0.000174 s⁻¹ | 2.23e+06 M⁻¹ s⁻¹
17 | Fab of anti-Activin A antibody Clone P (Fab, V domains shown, Fab format; only VH and VL are tied to the clone; also called Clone P Fab) VH: QVQLVQSGAEVKKPGSSVKVSCKASGGTFDDYAISWVRQAPGQGLEWMGGIIPRFGIANYAQKFQGRVTITADESTSTAYMELSSLRSEDTAVYYCARPPSSGSDWGQGTLVTVSS VL: DIQMTQSPSSVSASVGDRVTITCRASQGIDSWLAWYQQKPGKAPKLLIYAASSLQSGVPSRFSGSGSGTDFTLTISSLQPEDFATYYCQQVHSFPITFGGGTKVEIK | 1.53 nM |  |  | 
